Legend:
[1] = system: aortic rings; assay: Aortic ring assay; format: cell-based
Experimental: (§1) Cell migration assays were performed on growth arrested confluent HMVEC, BAEC or hSMC cells. Cell monolayers were wounded with a rubber policeman and washed with serum-free medium. Dishes were then incubated for 20 hours in serum-free medium containing VEGF165, PDGF-AA, (R&D Systems, Minneapolis USA) or PDGF-CC. Each assay included two dishes per condition and was repeated three times independently. Cells were photographed at 40× magnification, and migration percentage corresponding to the ratio between area of the cells and the total area of the wound (Biocom visiol@b 2000 version 4.52, San Diego). For HMVEC proliferation assay, cells were seeded in 96-well plates (5 wells per condition), and incubated with VEGF, PDGF-AA, or PDGF-CC (50 ng/ml) after serum starvation. After 7 days, viable cells were counted using the cell Titer-glo luminescent cell viability assay. For NIH-3T3 and hSMC proliferation assay, cells cultured in 96-well plates were serum-starved overnight, followed by treatment with growth factors at different concentrations. Two days later, cell numbers were counted and proliferation percentage calculated, using cells cultured in medium containing 10% serum as control. Aortic ring assay was performed as described 51. Briefly, one-millimeter long aortic rings were embedded in gels of rat tail interstitial collagen and cultured at 37° C., supplemented with different growth factors (50 ng/ml). Aortic rings were analysed at day 9 of culturing. Experiments included three explants per condition and were repeated at least twice. Aortic rings were photographed at 25× magnification.
Although PDGFR-α is expressed on endothelial cells (Edelberg et al., Journal of Clinical Investigation, 1998 102:837-43; Smits et al., Growth Factors, 1989 2:1-8; Bar et al., Endocrinology, 1989 124:1841-8; Beitz et al., Proc Natl Acad Sci USA, 1991 88:2021-5; Marx et al., J Clin Invest, 1994 93:131-9; Shinbrot et al., Dev. Dyn., 1994 199:169-175), little is known about the functional consequence of PDGFR-α signaling in these cells. […] We also tested the effect of PDGF-CC on cultured aortic rings, as this assay allows assessment of the outgrowth of microvessels from an intact vessel in vitro (Blacher et al., Angiogenesis, 2001 4:133-42). Results are graphically represented as the number of microvessels and the distance over which they grew out from the aortic ring. Each experiment included three explants per condition and was repeated at least twice. At day 9 after culturing, microvessels and the distance of their outgrowth were quantified and evaluated using Student's t test. In baseline conditions, only a small number of microvessels sprouted from the aortic rings—most of them over very short distances (0.25 mm from the aortic ring)—and only a small fraction (<5%) growing out over longer distances (>0.5 mm from the aortic ring, FIG. 41a). VEGF increased not only the number of sprouting microvessels (P<0.001 at all concentrations versus control), but also the distance over which they grew out (P<0.05 at all concentrations versus control; FIG. 41b,f). At 30 ng/ml, PDGF-CC increased the number of microvessels (P<0.001 versus control, FIG. 41e,g) and increased the distance of vessel outgrowth at 5 ng/ml (P<0.01 versus control, FIG. 41g). […] A similar bell-shaped dose-response relationship has been documented for other members of the VEGF/PDGF-superfamily (Jin et al., J Mol Neurosci, 2000 14:197-203). […]

[2] = system: hSMC; assay: Cell migration assay, hSMC; format: cell-based, human; conditions: wounded monolayer, 20 hours
Experimental: Cell migration assays were performed on growth arrested confluent HMVEC, BAEC or hSMC cells. Cell monolayers were wounded with a rubber policeman and washed with serum-free medium. Dishes were then incubated for 20 hours in serum-free medium containing VEGF165, PDGF-AA, (R&D Systems, Minneapolis USA) or PDGF-CC. Each assay included two dishes per condition and was repeated three times independently. Cells were photographed at 40× magnification, and migration percentage corresponding to the ratio between area of the cells and the total area of the wound (Biocom visiol@b 2000 version 4.52, San Diego). […] After 7 days, viable cells were counted using the cell Titer-glo luminescent cell viability assay. […] Two days later, cell numbers were counted and proliferation percentage calculated, using cells cultured in medium containing 10% serum as control. […] Aortic rings were analysed at day 9 of culturing. […]
The mitogenic and chemotactic effect of PDGF-CC was then tested on SMCs and perivascular fibroblast cells, and the effect of PDGF-CC was compared to that of VEGF and PDGF-AA in both cultured cells and the aortic ring assay (Blacher et al., Angiogenesis, 2001 4:133-42). […] In the aortic ring assay, we quantified the growth and emigration of perivascular fibroblasts from the intact vessel using computer-assisted image analysis after treatment with VEGF and different PDGFs at different concentrations. […]

[3] = system: ischemic gastrocnemius muscle; assay: Hind limb ischemia mouse model (femoral artery ligation); format: in vivo
Description: To further verify the angio/arteriogenic activity of PDGF-CC in vivo, the effect of PDGF-CC in an established mouse model of hind limb ischemia is investigated (Luttun et al., Nat Med, 2002 1:1). PDGFR-α expression was quantified by RNAse protection analysis in the gastrocnemius muscle, which becomes highly ischemic after ligation of the femoral artery (Deindl et al., Circ Res, 2001 89:779-86; Couffinhal et al., American Journal of Pathology, 1998 152:1667-1679). Two days after femoral artery ligation, when a fraction of myocytes died due to ischemic necrosis, PDGFR-α transcript levels decreased to 76% of those found in normal muscles (FIG. 37a). […] Revascularization of the ischemic gastrocnemius muscle, which only occurred in those regions where regenerating muscle replaced the necrotic avascular muscle, was scored after continuous delivery, by osmotic minipump, of 4.5 μg PDGF-CC per day for one week after femoral artery ligation. […] PDGF-CC also enlarged the second-generation collateral side branches in the adductor muscle ([…] after saline versus […] after PDGF-CC; N=10; P=0.05). […] Thus, PDGF-CC stimulates revascularization in mouse models of both heart and limb ischemia.

[4] = system: bovine aorta endothelial cells (BAEC); assay: Cell migration assay, BAEC; format: cell-based; conditions: wounded monolayer, 20 hours, serum-free medium
Experimental: as §1, with “Briefly, one-millimeter long aortic rings were embedded in gels of rat tail interstitial collagen and cultured at 37° C., supplemented with different growth factors (50 ng/ml).” left out, “Experiments included three explants per condition and were repeated at least twice. Aortic rings were photographed at 25× magnification.” left out

[5] = 4.5 μg per day for one week after femoral artery ligation

B1: PDGF-CC: recombinant human PDGF-CC core domain homodimer, residues 230-345 of full-length PDGF-C (SEQ ID NO:40), produced in baculovirus infected insect cells (protein)
chain: GRKSRVVDLNLLTEEVRLYSCTPRNFSVSIREELKRTDTIFWPGCLLVKRCGGNCACCLHNCNECQCVPSKVTKKYHEVLQLRPKTGVRGLHKSLTDVALEHHEECDCVCRGSTGG
modifications: homodimer; PDGF-C core domain
- distance of vessel outgrowth ([1]; 5 ng/ml, day 9, versus control): increased
- number of microvessels ([1]; 30 ng/ml, day 9, versus control): increased
- concentration of maximal stimulation of perivascular fibroblast-like cells ([1]; FIG. 41 legend): 5 to 10 ng/mL
- concentration of maximum effect on microvessel sprouting ([1]; bell-shaped dose-response, less potent at 50 ng/ml): 30 ng/mL
- number and emigration of perivascular fibroblast-like cells ([1]; day 9, versus control): significantly increased
- hSMC migration [2]: stimulated
- hemorrhage, edema or fibrosis in treated limbs ([3]; 4.5 μg per day for one week): No signs of hemorrhage, edema or fibrosis
- angiogenesis (capillary density) [3, 5]: increased
- arteriogenesis (density of SMA+ vessels) [3, 5]: enhanced
- extent of ischemic muscle necrosis [3, 5]: reduced
- skeletal muscle regeneration [3, 5]: enhanced
- second-generation collateral side branches in the adductor muscle ([3]; after femoral artery ligation, N=10): 920±100 μm^3
- migration of BAEC [4]: enhanced

Reference: patent US20070172423A1, “Composition and method for modulating vasculogenesis for angiogenesis” (priority 1998, published 2007)
